Reference: paper PMC5074368
Where a chain is given by its changes, count along the chain named. In names and notes the source's numbering stands. Values belong to the molecule of their own block, whether it stands above or below them.

What was measured:
[1] = target: Dab2 in the prey vector pVP16 (UniProt P98082); test: mammalian two-hybrid assay; details: parent: est. 100, read off a plot
[2] = target: TOM1 in the prey vector pVP16 (UniProt O60784); test: mammalian two-hybrid assay; details: parent: est. 100, read off a plot
[3] = target: F-actin (cellular actin filaments of RPE cells) (human (endogenous in RPE cells)) (UniProt P60709); test: co-sedimentation; actin pelleting assay: homogenate of RPE cells expressing GFP-myosin VI constructs in F-actin stabilisation buffer (50 mM PIPES pH 6.9, 50 mM NaCl, mild detergents), 100 000 x g, 1 h, 37°C; quantitative immunoblotting, pellet/supernatant normalised to endogenous myosin VI; the pellet also holds cellular membranes
[4] = target: GIPC in the prey vector pVP16 (UniProt O14908); test: mammalian two-hybrid assay; details: parent: est. 100, read off a plot
[5] = target: NDP52 in the prey vector pVP16 (UniProt Q13137); test: mammalian two-hybrid assay; details: parent: est. 100, read off a plot
[6] = target: LMTK2 in the prey vector pVP16 (UniProt Q8IWU2); test: mammalian two-hybrid assay; details: n = 4; parent: est. 100; read off a plot
[7] = target: optineurin in the prey vector pVP16 (UniProt Q96CV9); test: mammalian two-hybrid assay; details: n = 4; parent: est. 100; read off a plot
[8] = target: F-actin (cellular actin filaments of RPE cells), P60709; test: cell fractionation into supernatant and F-actin-enriched pellet, quantitative immunoblotting; details: chain shown with the change, n = 3, parent: est. 1.3, read off a plot

percent of parent (% wildtype control) ([1]; n = 5): 88 | percent of parent (% wildtype control) ([2]; n = 3): 87
Molecule: Myosin VI globular tail (amino acids 1036–1294), wild type, in the bait vector pM E1254A

percent of parent (% wildtype control) ([1]; n = 5): 260 | percent of parent (% wildtype control) ([2]; n = 3): 110
Molecule: Myosin VI globular tail (amino acids 1036–1294), wild type, in the bait vector pM I1252A

fold increase of the pellet/supernatant ratio against WT myosin VI [3]: 3 fold
Molecule: GFP-tagged full-length myosin VI-NI WWY–WLY (from UniProt Q9UM54-1 1-1285) (natural protein)

fold increase of the pellet/supernatant ratio against WT myosin VI [3]: > 5 fold
Molecule: GFP-tagged full-length myosin VI-NI RRL–AAA (from UniProt Q9UM54-1 1-1285) (natural protein)

percent of parent (% wildtype control) ([4]; n = 3): 69 | percent of parent (% wildtype control) ([5]; n = 3): 76
Molecule: Myosin VI globular tail (amino acids 1036–1294), wild type, in the bait vector pM R1107A

percent of parent (% wildtype control) ([1]; n = 4): 1 | percent of parent (% wildtype control) ([1]; n = 5): 1 | percent of parent (% wildtype control) ([4]; n = 4): 59 | percent of parent (% wildtype control) [6]: 0 | percent of parent (% wildtype control) ([5]; n = 4): 71 | percent of parent (% wildtype control) ([2]; n = 3): 2 | percent of parent (% wildtype control) ([2]; n = 4): 2 | percent of parent (% wildtype control) [7]: 120
Molecule: Myosin VI globular tail (amino acids 1036–1294), wild type, in the bait vector pM W1253A

percent of parent (% wildtype control) ([1]; n = 5): 60 | percent of parent (% wildtype control) ([2]; n = 3): 99
Molecule: Myosin VI globular tail (amino acids 1036–1294), wild type, in the bait vector pM R1255A

percent of parent (% wildtype control) ([4]; n = 3): 2 | percent of parent (% wildtype control) ([5]; n = 3): 16
Molecule: Myosin VI globular tail (amino acids 1036–1294), wild type, in the bait vector pM R1108A

percent of parent (% wildtype control) ([1]; n = 5): 66 | percent of parent (% wildtype control) ([2]; n = 3): 73
Molecule: Myosin VI globular tail (amino acids 1036–1294), wild type, in the bait vector pM E1251A

percent of parent (% wildtype control) ([4]; n = 3): 32 | percent of parent (% wildtype control) ([5]; n = 3): 100
Molecule: Myosin VI globular tail (amino acids 1036–1294), wild type, in the bait vector pM L1109A

other: pellet:supernatant (P:S) ratio [8]: 2.2
B1: GFP-tagged full-length myosin VI-NI, wild type, Q9UM54-1 W1253A (protein)
chain: MEDGKPVWAPHPTDGFQMGNIVDIGPDSLTIEPLNQKGKTFLALINQVFPAEEDSKKDVEDNCSLMYLNEATLLHNIKVRYSKDRIYTYVANILIAVNPYFDIPKIYSSEAIKSYQGKSLGTRPPHVFAIADKAFRDMKVLKMSQSIIVSGESGAGKTENTKFVLRYLTESYGTGQDIDDRIVEANPLLEAFGNAKTVRNNNSSRFGKFVEIHFNEKSSVVGGFVSHYLLEKSRICVQGKEERNYHIFYRLCAGASEDIREKLHLSSPDNFRYLNRGCTRYFANKETDKQILQNRKSPEYLKAGSMKDPLLDDHGDFIRMCTAMKKIGLDDEEKLDLFRVVAGVLHLGNIDFEEAGSTSGGCNLKNKSAQSLEYCAELLGLDQDDLRVSLTTRVMLTTAGGTKGTVIKVPLKVEQANNARDALAKTVYSHLFDHVVNRVNQCFPFETSSYFIGVLDIAGFEYFEHNSFEQFCINYCNEKLQQFFNERILKEEQELYQKEGLGVNEVHYVDNQDCIDLIEAKLVGILDILDEENRLPQPSDQHFTSAVHQKHKDHFRLTIPRKSKLAVHRNIRDDEGFIIRHFAGAVCYETTQFVEKNNDALHMSLESLICESRDKFIRELFESSTNNNKDTKQKAGKLSFISVGNKFKTQLNLLLDKLRSTGASFIRCIKPNLKMTSHHFEGAQILSQLQCSGMVSVLDLMQGGYPSRASFHELYNMYKKYMPDKLARLDPRLFCKALFKALGLNENDYKFGLTKVFFRPGKFAEFDQIMKSDPDHLAELVKRVNHWLTCSRWKKVQWCSLSVIKLKNKIKYRAEACIKMQKTIRMWLCKRRHKPRIDGLVKVGTLKKRLDKFNEVVSVLKDGKPEMNKQIKNLEISIDTLMAKIKSTMMTQEQIQKEYDALVKSSEELLSALQKKKQQEEEAERLRRIQEEMEKERKRREEDEKRRRKEEEERRMKLEMEAKRKQEEEERKKREDDEKRIQAEVEAQLARQKEEESQQQAVLEQERRDRELALRIAQSEAELISDEAQADLALRRNDGTRPKMTPEQMAKEMSEFLSRGPAVLATKAAAGTKKYDLSKWKYAELRDTINTSCDIELLAACREEFHRRLKVYHAWKSKNKKRNTETEQRAPKSVTDYDFAPFLNNSPQQNPAAQIPARQREIEMNRQQRFFRIPFIRPADQYKDPQSKKKGWWYAHFDGPWIARQMELHPDKPPILLVAGKDDMEMCELNLEETGLTRKRGAEILPRQFEEIAERCGGIQYLQNAIESRQARPTYATAMLQSLLK

other: pellet:supernatant (P:S) ratio [8]: 1.2
B2: GFP-tagged full-length myosin VI-NI, wild type, Q9UM54-1 E1251A (protein)
chain: B1 chain with E1251A, A1253W

other: pellet:supernatant (P:S) ratio [8]: 0.97
B3: GFP-tagged full-length myosin VI-NI, wild type, Q9UM54-1 E1254A (protein)
chain: B1 chain with A1253W, E1254A

other: pellet:supernatant (P:S) ratio [8]: 1
B4: GFP-tagged full-length myosin VI-NI, wild type, Q9UM54-1 I1252A (protein)
chain: B1 chain with I1252A, A1253W

other: pellet:supernatant (P:S) ratio [8]: 1.2
B5: GFP-tagged full-length myosin VI-NI, wild type, Q9UM54-1 R1255A (protein)
chain: B1 chain with A1253W, R1255A
